Source: patent US20140213513A1 (Sanofi, priority 2012, published 2014)
*1 amine or outer side, *2 acyl side, *3 side chain or, on linkers, in order; H or OH if unused. Where no end group is shown, it is not given here. Side-chain parts run from the residue outwards. [ ]: non-standard residue; d: D form. The star is where a group is joined. γGlu = O=C(O)[C@H](CCC(=O)[*:2])N[*:1]; Stearoyl = CCCCCCCCCCCCCCCCCC(=O)*; Palmitoyl = CCCCCCCCCCCCCCCC(=O)*; Aib = CC(C)(N)C(=O)O

T1: human GIP receptor (human, UniProt P48546 22-466)
T1 sequence (looked up): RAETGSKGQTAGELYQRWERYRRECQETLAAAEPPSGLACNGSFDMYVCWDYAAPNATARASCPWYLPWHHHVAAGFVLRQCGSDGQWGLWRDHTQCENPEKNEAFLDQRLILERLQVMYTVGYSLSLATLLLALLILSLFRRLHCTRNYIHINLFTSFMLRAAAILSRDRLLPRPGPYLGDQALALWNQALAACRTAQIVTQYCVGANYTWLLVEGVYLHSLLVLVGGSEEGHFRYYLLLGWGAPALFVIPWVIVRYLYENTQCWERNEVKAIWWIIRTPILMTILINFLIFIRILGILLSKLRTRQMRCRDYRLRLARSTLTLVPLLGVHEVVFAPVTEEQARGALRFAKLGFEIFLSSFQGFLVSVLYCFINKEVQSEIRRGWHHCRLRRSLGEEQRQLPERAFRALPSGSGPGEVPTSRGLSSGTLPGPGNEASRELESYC


Columns and labels:
Assay in all cases: cell-based or functional assay
human GLP-1 receptor = human GLP-1 receptor (human, UniProt P43220 24-463)
human GIP receptor = target: T1, human GIP receptor
human glucagon receptor = human glucagon receptor (human, UniProt P47871 26-477)
Sequence of human glucagon receptor (P47871 26-477): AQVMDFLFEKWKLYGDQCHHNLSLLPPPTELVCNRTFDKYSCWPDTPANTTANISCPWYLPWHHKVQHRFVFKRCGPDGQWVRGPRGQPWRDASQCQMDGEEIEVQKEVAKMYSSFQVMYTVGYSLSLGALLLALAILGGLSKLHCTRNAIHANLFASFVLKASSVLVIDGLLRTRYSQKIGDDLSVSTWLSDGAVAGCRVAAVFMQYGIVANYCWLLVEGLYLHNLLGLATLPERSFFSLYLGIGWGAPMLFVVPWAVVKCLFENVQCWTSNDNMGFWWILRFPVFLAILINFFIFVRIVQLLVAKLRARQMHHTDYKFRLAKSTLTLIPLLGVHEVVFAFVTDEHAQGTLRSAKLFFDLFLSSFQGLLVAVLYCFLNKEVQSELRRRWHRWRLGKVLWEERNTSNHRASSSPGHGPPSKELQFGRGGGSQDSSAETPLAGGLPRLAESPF

Row | Binder | EC50 hGLP-1 R (human GLP-1 receptor) [nM] | EC50 hGIP R (human GIP receptor) [nM] | EC50 hGLUC R (human glucagon receptor) [nM]
1 | Y[Aib]QGTFTSDLSKQK([γGlu-Palmitoyl])ESKAAQEFIEWLKAGGPSSGAPPPS-NH2 (N-terminus assumed; SMILES CCCCCCCCCCCCCCCC(=O)N[C@@H](CCC(=O)NCCCC[C@H](NC(=O)[C@H](CCC(N)=O)NC(=O)[C@H](CCCCN)NC(=O)[C@H](CO)NC(=O)[C@H](CC(C)C)NC(=O)[C@H](CC(=O)O)NC(=O)[C@H](CO)NC(=O)[C@@H](NC(=O)[C@H](Cc1ccccc1)NC(=O)[C@@H](NC(=O)CNC(=O)[C@H](CCC(N)=O)NC(=O)C(C)(C)NC(=O)[C@@H](N)Cc1ccc(O)cc1)[C@@H](C)O)[C@@H](C)O)C(=O)N[C@@H](CCC(=O)O)C(=O)N[C@@H](CO)C(=O)N[C@@H](CCCCN)C(=O)N[C@@H](C)C(=O)N[C@@H](C)C(=O)N[C@@H](CCC(N)=O)C(=O)N[C@@H](CCC(=O)O)C(=O)N[C@@H](Cc1ccccc1)C(=O)N[C@H](C(=O)N[C@@H](CCC(=O)O)C(=O)N[C@@H](Cc1c[nH]c2ccccc12)C(=O)N[C@@H](CC(C)C)C(=O)N[C@@H](CCCCN)C(=O)N[C@@H](C)C(=O)NCC(=O)NCC(=O)N1CCC[C@H]1C(=O)N[C@@H](CO)C(=O)N[C@@H](CO)C(=O)NCC(=O)N[C@@H](C)C(=O)N1CCC[C@H]1C(=O)N1CCC[C@H]1C(=O)N1CCC[C@H]1C(=O)N[C@@H](CO)C(N)=O)[C@@H](C)CC)C(=O)O) [exendin-4 peptide analogue SEQ ID NO: 40] | 0.0055 | 0.0536 | 0.0226
2 | Y[Aib]QGTFTSDLSKQK([γGlu-Stearoyl])DSKAAQDFIEWLKAGGPSSGAPPPS-NH2 (N-terminus assumed; SMILES CCCCCCCCCCCCCCCCCC(=O)N[C@@H](CCC(=O)NCCCC[C@H](NC(=O)[C@H](CCC(N)=O)NC(=O)[C@H](CCCCN)NC(=O)[C@H](CO)NC(=O)[C@H](CC(C)C)NC(=O)[C@H](CC(=O)O)NC(=O)[C@H](CO)NC(=O)[C@@H](NC(=O)[C@H](Cc1ccccc1)NC(=O)[C@@H](NC(=O)CNC(=O)[C@H](CCC(N)=O)NC(=O)C(C)(C)NC(=O)[C@@H](N)Cc1ccc(O)cc1)[C@@H](C)O)[C@@H](C)O)C(=O)N[C@@H](CC(=O)O)C(=O)N[C@@H](CO)C(=O)N[C@@H](CCCCN)C(=O)N[C@@H](C)C(=O)N[C@@H](C)C(=O)N[C@@H](CCC(N)=O)C(=O)N[C@@H](CC(=O)O)C(=O)N[C@@H](Cc1ccccc1)C(=O)N[C@H](C(=O)N[C@@H](CCC(=O)O)C(=O)N[C@@H](Cc1c[nH]c2ccccc12)C(=O)N[C@@H](CC(C)C)C(=O)N[C@@H](CCCCN)C(=O)N[C@@H](C)C(=O)NCC(=O)NCC(=O)N1CCC[C@H]1C(=O)N[C@@H](CO)C(=O)N[C@@H](CO)C(=O)NCC(=O)N[C@@H](C)C(=O)N1CCC[C@H]1C(=O)N1CCC[C@H]1C(=O)N1CCC[C@H]1C(=O)N[C@@H](CO)C(N)=O)[C@@H](C)CC)C(=O)O) [exendin-4 peptide analogue SEQ ID NO: 41] | 0.0241 | 0.186 | 0.0265
3 | Y[Aib]EGTFTSDLSIQK([γGlu-Palmitoyl])EEQAAHEFIEWLKR[Aib]GPSSGAPPPS-NH2 (N-terminus assumed; SMILES CCCCCCCCCCCCCCCC(=O)N[C@@H](CCC(=O)NCCCC[C@H](NC(=O)[C@H](CCC(N)=O)NC(=O)[C@@H](NC(=O)[C@H](CO)NC(=O)[C@H](CC(C)C)NC(=O)[C@H](CC(=O)O)NC(=O)[C@H](CO)NC(=O)[C@@H](NC(=O)[C@H](Cc1ccccc1)NC(=O)[C@@H](NC(=O)CNC(=O)[C@H](CCC(=O)O)NC(=O)C(C)(C)NC(=O)[C@@H](N)Cc1ccc(O)cc1)[C@@H](C)O)[C@@H](C)O)[C@@H](C)CC)C(=O)N[C@@H](CCC(=O)O)C(=O)N[C@@H](CCC(=O)O)C(=O)N[C@@H](CCC(N)=O)C(=O)N[C@@H](C)C(=O)N[C@@H](C)C(=O)N[C@@H](Cc1c[nH]cn1)C(=O)N[C@@H](CCC(=O)O)C(=O)N[C@@H](Cc1ccccc1)C(=O)N[C@H](C(=O)N[C@@H](CCC(=O)O)C(=O)N[C@@H](Cc1c[nH]c2ccccc12)C(=O)N[C@@H](CC(C)C)C(=O)N[C@@H](CCCCN)C(=O)N[C@@H](CCCNC(=N)N)C(=O)NC(C)(C)C(=O)NCC(=O)N1CCC[C@H]1C(=O)N[C@@H](CO)C(=O)N[C@@H](CO)C(=O)NCC(=O)N[C@@H](C)C(=O)N1CCC[C@H]1C(=O)N1CCC[C@H]1C(=O)N1CCC[C@H]1C(=O)N[C@@H](CO)C(N)=O)[C@@H](C)CC)C(=O)O) [exendin-4 peptide analogue SEQ ID NO: 38] | 0.009 | 0.0074 | 22.5
4 | Y[Aib]QGTFTSDLSKQK([γGlu-Palmitoyl])ESKAAQDFIEWLKAGGPSSGAPPPS-NH2 (N-terminus assumed; SMILES CCCCCCCCCCCCCCCC(=O)N[C@@H](CCC(=O)NCCCC[C@H](NC(=O)[C@H](CCC(N)=O)NC(=O)[C@H](CCCCN)NC(=O)[C@H](CO)NC(=O)[C@H](CC(C)C)NC(=O)[C@H](CC(=O)O)NC(=O)[C@H](CO)NC(=O)[C@@H](NC(=O)[C@H](Cc1ccccc1)NC(=O)[C@@H](NC(=O)CNC(=O)[C@H](CCC(N)=O)NC(=O)C(C)(C)NC(=O)[C@@H](N)Cc1ccc(O)cc1)[C@@H](C)O)[C@@H](C)O)C(=O)N[C@@H](CCC(=O)O)C(=O)N[C@@H](CO)C(=O)N[C@@H](CCCCN)C(=O)N[C@@H](C)C(=O)N[C@@H](C)C(=O)N[C@@H](CCC(N)=O)C(=O)N[C@@H](CC(=O)O)C(=O)N[C@@H](Cc1ccccc1)C(=O)N[C@H](C(=O)N[C@@H](CCC(=O)O)C(=O)N[C@@H](Cc1c[nH]c2ccccc12)C(=O)N[C@@H](CC(C)C)C(=O)N[C@@H](CCCCN)C(=O)N[C@@H](C)C(=O)NCC(=O)NCC(=O)N1CCC[C@H]1C(=O)N[C@@H](CO)C(=O)N[C@@H](CO)C(=O)NCC(=O)N[C@@H](C)C(=O)N1CCC[C@H]1C(=O)N1CCC[C@H]1C(=O)N1CCC[C@H]1C(=O)N[C@@H](CO)C(N)=O)[C@@H](C)CC)C(=O)O) [exendin-4 peptide analogue SEQ ID NO: 39] | 0.0045 | 0.0385 | 0.0192
5 | Y[Aib]QGTFTSDLSIQK([γGlu-Palmitoyl])EK[Aib]AA[Aib]EFIEWLKNTGPSSGAPPPS-NH2 (N-terminus assumed; SMILES CCCCCCCCCCCCCCCC(=O)N[C@@H](CCC(=O)NCCCC[C@H](NC(=O)[C@H](CCC(N)=O)NC(=O)[C@@H](NC(=O)[C@H](CO)NC(=O)[C@H](CC(C)C)NC(=O)[C@H](CC(=O)O)NC(=O)[C@H](CO)NC(=O)[C@@H](NC(=O)[C@H](Cc1ccccc1)NC(=O)[C@@H](NC(=O)CNC(=O)[C@H](CCC(N)=O)NC(=O)C(C)(C)NC(=O)[C@@H](N)Cc1ccc(O)cc1)[C@@H](C)O)[C@@H](C)O)[C@@H](C)CC)C(=O)N[C@@H](CCC(=O)O)C(=O)N[C@@H](CCCCN)C(=O)NC(C)(C)C(=O)N[C@@H](C)C(=O)N[C@@H](C)C(=O)NC(C)(C)C(=O)N[C@@H](CCC(=O)O)C(=O)N[C@@H](Cc1ccccc1)C(=O)N[C@H](C(=O)N[C@@H](CCC(=O)O)C(=O)N[C@@H](Cc1c[nH]c2ccccc12)C(=O)N[C@@H](CC(C)C)C(=O)N[C@@H](CCCCN)C(=O)N[C@@H](CC(N)=O)C(=O)N[C@H](C(=O)NCC(=O)N1CCC[C@H]1C(=O)N[C@@H](CO)C(=O)N[C@@H](CO)C(=O)NCC(=O)N[C@@H](C)C(=O)N1CCC[C@H]1C(=O)N1CCC[C@H]1C(=O)N1CCC[C@H]1C(=O)N[C@@H](CO)C(N)=O)[C@@H](C)O)[C@@H](C)CC)C(=O)O) [exendin-4 peptide analogue SEQ ID NO: 9] | 0.0055 | 0.009 | 0.445
